This note sets out measurements from US20240254229A1 (Molecular Partners, published 2024).

The target of assay [1] is T1, human CD3 on primary human pan-T cells (human, UniProt P07766 23-207; P09693 23-182; P04234 22-171; P20963 22-164).
T1 construct: whole, on cells; Native complex on T cells isolated from PBMC; also called CD3 on Pan-T cells
The experiment in a line: Mirrorball laser scanning cytometry on primary human pan-T cells, anti-penta-His Alexa Fluor 488 detection, 600 µM HSA. On the procedure: (§1) The determination of CD3 binding was performed with primary human T cells using Mirrorball laser scanning imaging cytometry. Therefore, primary T cells were isolated from human peripheral blood mononuclear cells (PBMCs) using a pan-T cell purification kit (Miltenyi Biotec). A titration of DARPin® protein #7, DARPin® protein #8 and DARPin® protein #9 and DARPin® protein #10, formatted into a trispecific format (including CD33 and CD123 binding ankyrin repeat domains), DARPin® protein #11, DARPin® protein #12, DARPin® protein #13 and DARPin® protein #14 UN tetraspecific format (including an additional ankyrin repeat domain binding specifically to human serum albumin) were incubated with 50′000 pan-T cells per well in presence of 600 μM human serum albumin (to mimic physiological serum concentration) for 30 minutes at 4° C. Two benchmark T-cell engagers, AMG330 and flotetuzumab were applied as controls, targeting CD33 or CD123. After washing, CD3 binding was detected by 1:100-diluted anti-penta-His Alexa Fluor 488 antibody (Qiagen). After 30 min incubation at 4° C., cells were washed and resuspended in Cytofix fixation buffer (BD Biosciences) and counterstained by 5 μM DRAQ5 (Abcam) for 15 min at RT. Median of mean fluorescence intensities of Alexa Fluor 488 binding on far-red counterstained cells were measured by Mirrorball using Cellista software (SPT Labtech) and data was plotted using GraphPad Prism 8.

For assay [2], the target named is T1, human CD3 on primary human pan-T cells. Nature of the assay: Mirrorball cytometry on primary human pan-T cells, 600 µM HSA. As for the experimental part:
as §1, with “of T cell” for “of CD3”, “protein #27,” for “protein #7,”, “protein #28” for “protein #8”, “protein #29” for “protein #9”, “protein #30” for “protein #10, formatted into a trispecific format (including CD33 and CD123 binding ankyrin repeat domains), DARPin® protein #11, DARPin® protein #12, DARPin® protein #13 and DARPin® protein #14 UN tetraspecific format (including an additional ankyrin repeat domain binding specifically to human serum albumin)”

The target in assay [3] is T2, extracellular domain of human CD70 (SEQ ID NO: 89), hCD70-Fc-trimer, ACRO Biosystems (human, UniProt P32970 52-193, chemically biotinylated where the biotinylated form was used).
T2 construct: also called human CD70-Fc-trimer; Bio.CD70
T2 sequence: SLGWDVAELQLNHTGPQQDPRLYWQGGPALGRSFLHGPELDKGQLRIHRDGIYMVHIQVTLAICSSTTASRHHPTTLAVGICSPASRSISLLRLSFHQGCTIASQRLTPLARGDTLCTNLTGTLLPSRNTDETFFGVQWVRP
The experiment in a line: SPR (ProteOn XPR36), target on GLC chip, DARPin as analyte.

The target in assay [4] is T3, biotinylated extracellular domain of human CD33 (SEQ ID NO: 87), Fc and Avi tagged (human, UniProt P20138 18-259, biotinylated with BirA-GST (Avi tag)).
T3 construct: also called hCD33; human target hCD33
Described as above.

Another assay concerns the target T4, human serum albumin (human, UniProt P02768 25-609).
T4 construct: also called HSA; SA
Nature of the assay: SPR (ProteOn XPR36), target on GLC chip.

For assay [5], the target named is T5, biotinylated extracellular domain of human CD123 (SEQ ID NO: 88), Fc and Avi tagged (human, UniProt P26951 19-303, biotinylated with BirA-GST (Avi tag)).
T5 construct: also called hCD123
T5 sequence: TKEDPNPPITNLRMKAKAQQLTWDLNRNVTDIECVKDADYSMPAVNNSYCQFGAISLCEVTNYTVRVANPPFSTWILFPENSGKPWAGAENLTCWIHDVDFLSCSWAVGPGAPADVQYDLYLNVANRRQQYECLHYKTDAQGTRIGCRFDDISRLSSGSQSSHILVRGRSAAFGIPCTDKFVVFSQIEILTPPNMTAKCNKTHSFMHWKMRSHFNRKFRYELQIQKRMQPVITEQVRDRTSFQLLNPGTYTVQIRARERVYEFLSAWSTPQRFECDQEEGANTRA
Nature of the assay: SPR (ProteOn XPR36), target on GLC chip.

T1 sequence (P07766 23-207, chain 1 of 4): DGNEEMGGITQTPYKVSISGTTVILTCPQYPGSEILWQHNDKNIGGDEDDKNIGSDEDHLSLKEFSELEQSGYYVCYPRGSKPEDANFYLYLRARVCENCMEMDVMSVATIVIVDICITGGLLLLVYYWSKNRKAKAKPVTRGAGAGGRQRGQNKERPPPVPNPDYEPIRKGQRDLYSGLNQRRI
T1 sequence (P09693 23-182, chain 2 of 4): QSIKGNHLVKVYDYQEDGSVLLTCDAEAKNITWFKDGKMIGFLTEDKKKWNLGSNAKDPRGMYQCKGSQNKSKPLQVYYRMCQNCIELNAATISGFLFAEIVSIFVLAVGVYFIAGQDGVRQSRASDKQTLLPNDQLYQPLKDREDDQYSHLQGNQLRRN
T1 sequence (P04234 22-171, chain 3 of 4): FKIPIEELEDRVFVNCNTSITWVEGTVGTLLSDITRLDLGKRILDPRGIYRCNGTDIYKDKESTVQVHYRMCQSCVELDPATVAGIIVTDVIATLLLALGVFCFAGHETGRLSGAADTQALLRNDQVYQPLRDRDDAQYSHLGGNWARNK
T1 sequence (P20963 22-164, chain 4 of 4): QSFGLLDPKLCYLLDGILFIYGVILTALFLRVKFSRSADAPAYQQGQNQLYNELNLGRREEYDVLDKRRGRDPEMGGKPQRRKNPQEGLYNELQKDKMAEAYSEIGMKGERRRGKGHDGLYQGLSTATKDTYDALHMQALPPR
T4 sequence (P02768 25-609 limits assumed): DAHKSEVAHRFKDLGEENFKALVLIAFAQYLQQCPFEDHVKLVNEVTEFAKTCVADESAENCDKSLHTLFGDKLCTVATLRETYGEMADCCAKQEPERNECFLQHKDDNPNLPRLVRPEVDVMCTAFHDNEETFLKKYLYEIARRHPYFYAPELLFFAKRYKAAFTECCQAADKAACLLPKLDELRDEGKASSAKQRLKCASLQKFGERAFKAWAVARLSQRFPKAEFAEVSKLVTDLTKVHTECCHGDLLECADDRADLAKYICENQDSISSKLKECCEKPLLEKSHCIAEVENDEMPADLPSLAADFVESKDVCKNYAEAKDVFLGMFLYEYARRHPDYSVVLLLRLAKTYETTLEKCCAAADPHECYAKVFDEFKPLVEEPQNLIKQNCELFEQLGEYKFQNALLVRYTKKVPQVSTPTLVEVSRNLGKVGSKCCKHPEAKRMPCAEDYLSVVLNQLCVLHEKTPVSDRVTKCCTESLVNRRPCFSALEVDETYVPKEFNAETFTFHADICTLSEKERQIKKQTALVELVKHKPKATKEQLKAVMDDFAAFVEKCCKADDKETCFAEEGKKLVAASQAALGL
T3 sequence (P20138 18-259 R69G): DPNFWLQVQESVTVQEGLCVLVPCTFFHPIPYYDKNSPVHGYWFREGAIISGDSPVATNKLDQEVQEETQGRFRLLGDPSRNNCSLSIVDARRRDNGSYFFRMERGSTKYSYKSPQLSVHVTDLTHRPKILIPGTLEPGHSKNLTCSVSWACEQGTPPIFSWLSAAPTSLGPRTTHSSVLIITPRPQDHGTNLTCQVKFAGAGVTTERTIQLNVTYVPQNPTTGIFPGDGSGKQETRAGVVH

B1: DARPin® protein 11 (designed binder)
single chain: DLGKKLLEAARAGQDDEVRELLKAGADVNAKDYFSHTPLHLAARNGHLKIVEVLLKAGADVNAKDFAGKTPLHLAAADGHLEIVEVLLKAGADVNAQDIFGKTPADIAADAGHEDIAEVLQKAAGSPTPTPTTPTPTPTTPTPTPTGSDLGKKLLEAARAGQDDEVRILMANGADVNALDWLGHTPLHLAAYEGHLEIVEVLLKNGADVNAIDDNNGFTPLHLAAIDGHLEIVEVLLKNGADVNAQDKFGKTAFDISIDNGNEDLAEILQKAAGSPTPTPTTPTPTPTTPTPTPTGSDLGDKLLLAATSGQDDEVRILLAAGADVNAKDYDGDTPLHLAADEGHLEIVEVLLKAGADVNAKDYSGSTPLHAAAAYGHLEIVEVLLKAGADVNAQDVFGYTPADLAAYVGHEDIAEVLQKAAGSPTPTPTTPTPTPTTPTPTPTGSDLGQKLLEAAWAGQDDEVRELLKAGADVNAKDSQGWTPLHTAAQTGHLEIFEVLLKAGADVNAKDDKGVTPLHLAAALGHLEIVEVLLKAGADVNAQDSWGTTPADLAAKYGHEDIAEVLQKAA
notes: half-life extended format of DARPin® protein #7; also called HSA-CD123-CD33-CD3
For B1, the binding result in assay [1] is “no binding (tested: about 3000 nM)”.

B2: DARPin® protein #14 (designed binder)
chain: DLGKKLLEAARAGQDDEVRELLKAGADVNAKDYFSHTPLHLAARNGHLKIVEVLLKAGADVNAKDFAGKTPLHLAAADGHLEIVEVLLKAGADVNAQDIFGKTPADIAADAGHEDIAEVLQKAAGSPTPTPTTPTPTPTTPTPTPTGSDLGKKLLEAARAGQDDEVRILMANGADVNALDWLGHTPLHLAAYEGHLEIVEVLLKNGADVNAIDDNNGFTPLHLAAIDGHLEIVEVLLKNGADVNAQDKFGKTAFDISIDNGNEDLAEILQKAAGSPTPTPTTPTPTPTTPTPTPTGSDLGDKLLLAATSGQDDEVRILLAAGADVNAKDYDGDTPLHLAADEGHLEIVEVLLKAGADVNAKDYSGSTPLHAAAAYGHLEIVEVLLKAGADVNAQDVFGYTPADLAAYVGHEDIAEVLQKAAGSPTPTPTTPTPTPTTPTPTPTGSDLGQKLLEAAWAGQLDEVRILLKAGADVNAKNSRGWTPLHTAAQTGHLEIFEVLLKAGADVNAKTNKRVTPLHLAAALGHLEIVEVLLKAGADVNARDTWGTTPADLAAKYGHRDIAEVLQKAA
notes: HSA-CD123-CD33-CD3, half-life extended form of #10; not shown: His-tag implied by anti-penta-His detection
Regarding B2, the “EC50 (read off the curve)” value in assay [1] was roughly 20 nM.

B3: DARPin® protein #7 (designed binder)
chain: DLGKKLLEAARAGQDDEVRILMANGADVNALDWLGHTPLHLAAYEGHLEIVEVLLKNGADVNAIDDNNGFTPLHLAAIDGHLEIVEVLLKNGADVNAQDKFGKTAFDISIDNGNEDLAEILQKAAGSPTPTPTTPTPTPTTPTPTPTGSDLGDKLLLAATSGQDDEVRILLAAGADVNAKDYDGDTPLHLAADEGHLEIVEVLLKAGADVNAKDYSGSTPLHAAAAYGHLEIVEVLLKAGADVNAQDVFGYTPADLAAYVGHEDIAEVLQKAAGSPTPTPTTPTPTPTTPTPTPTGSDLGQKLLEAAWAGQDDEVRELLKAGADVNAKDSQGWTPLHTAAQTGHLEIFEVLLKAGADVNAKDDKGVTPLHLAAALGHLEIVEVLLKAGADVNAQDSWGTTPADLAAKYGHEDIAEVLQKAA
notes: CD123-CD33-CD3 ankyrin repeat protein, no half-life extension; also called DARPin® #7; not shown: N-terminal His-tag
Consider B3, for which the binding result in assay [1] is recorded as “no binding”.

B4: DARPin® protein #28 (designed binder)
chain: DLGYKLLQAAYDGQLDEVRILLKAGADVNAKDSRGQTPLHYAASIGHLEIVEVLLKAGADVNAKDDHGWTPLHLAAWSGHLEIVEVLLKAGADVNAQDQEGTTPADLAAVQGHQDIAEVLQKAAGSPTPTPTTPTPTPTTPTPTPTGSDLGWKLLLAASRGQDDEVRILLAAGADVNAKDIDEGYTPLHIAAYYGHLEIVEVLLKAGADVNAKDRYGKTPLHLAAISGHEDIAEVLLKAGADVNAQDDKGDTPADLAADYGHEDIAEVLQKAAGSPTPTPTTPTPTPTTPTPTPTGSDLGQKLLEAAWAGQDDEVRELLKAGADVNAKNSRGWTPLHTAAQTGHLEIFEVLLKAGADVNAKDDKGVTPLHLAAALGHLEIVEVLLKAGADVNAQDSWGTTPADLAAKYGHEDIAEVLQKAA
notes: CD70-CD33-CD3; not shown: His-tag implied by anti-penta-His detection
B4 came in with an EC50 in assay [2] of 1.41 nM.

B5: DARPin® protein #29 (designed binder)
chain: DLGYKLLQAAYDGQLDEVRILLKAGADVNAKDSRGQTPLHYAASIGHLEIVEVLLKAGADVNAKDDHGWTPLHLAAWSGHLEIVEVLLKAGADVNAQDQEGTTPADLAAVQGHQDIAEVLQKAAGSPTPTPTTPTPTPTTPTPTPTGSDLGVKLLLAASRGQLDEVRILLKAGADVNAKDIDEGYTPLHIAAYYGHLEIVEVLLKAGADVNAKDRYGKTPLHLAAISGHLEIVEVLLKAGADVNAQDDKGDTPADLAADYGHQDIAEVLQKAAGSPTPTPTTPTPTPTTPTPTPTGSDLGQKLLEAAWAGQDDEVRELLKAGADVNAKNSRGWTPLHTAAQTGHLEIFEVLLKAGADVNAKDDKGVTPLHLAAALGHLEIVEVLLKAGADVNAQDSWGTTPADLAAKYGHEDIAEVLQKAA
notes: CD70-CD33-CD3; not shown: N-terminal His-tag
For the molecule B5, the equilibrium dissociation constant (Kd) in assay [3] stood at 0.18 nM; in assay [4] it was 4.8 nM. Besides, the binding result (with human serum albumin; in assay [5]) was “no binding (tested: 100 nM (highest concentration))” throughout. In assay [2], a half-maximal effect (EC50) was put at 1.97 nM.

B6: DARPin® protein #30 (designed binder)
chain: DLGYKLLQAAYDGQLDEVRILLKAGADVNAKDSRGQTPLHYAASIGHLEIVEVLLKAGADVNAKDDHGWTPLHLAAWSGHLEIVEVLLKAGADVNAQDQEGTTPADLAAVQGHQDIAEVLQKAAGSPTPTPTTPTPTPTTPTPTPTGSDLGKKLLEAALEGQDDEVRELLKAGADVNAKDQEGYTPLHLAAALGHLEIVEVLLKAGADVNAKDSIGRTPLHLAAYKGHLEIVEVLLKAGADVNAQDLLGETPADLAAEQGHEDIAEVLQKAAGSPTPTPTTPTPTPTTPTPTPTGSDLGVKLLRAAFHGQDDEVRILLAAGADVNAKDTDGETPLHYAAQFGHLEIVEVLLKAGADVNAKDAYGATPLHWAAWHGHLEIVEVLLKAGADVNAQDVSGATPADLAAKVGHEDIAEVLQKAAGSPTPTPTTPTPTPTTPTPTPTGSDLGQKLLEAAWAGQDDEVRELLKAGADVNAKNSRGWTPLHTAAQTGHLEIFEVLLKAGADVNAKDDKGVTPLHLAAALGHLEIVEVLLKAGADVNAQDSWGTTPADLAAKYGHEDIAEVLQKAA
notes: CD70-CD123-CD33-CD3; not shown: His-tag implied by anti-penta-His detection
In turn, B6 came in with an EC50 in assay [2] of 1.8 nM.

In general, EC50 (read off the curve) refers to the midpoint of the concentration-response curve. As usually defined, the EC50 is the concentration giving half of the maximal effect. What is called Kd is the constant that tells how readily two partners part at equilibrium. Low readings indicate tighter binding, high ones weaker binding.
